Data as given in patent US20190048094A1.

Legend:
[1] = target: SIINFEKL-specific TCR on CD8+ T-cells of OT-I transgenic mice; test: flow cytometry, dextramer staining of OT-I activated CD8+ T-cells
[2] = target: OVA peptide SIINFEKL-MHC complex (OVA257-264 presented in the context of MHC class I H-2K^b) on tumor cells (chicken); test: cell-based or functional assay

Substance	percent of cells positive [1]	IL-2 (pg/ml) from B3Z T-cells; B16F10 tumor cells, OVA 0.25 mg/ml [2]	IL-2 (pg/ml) from B3Z T-cells; B16F10 tumor cells, OVA 0.5 mg/ml [2]	IL-2 (pg/ml) from B3Z T-cells; B16F10 tumor cells, OVA 1.0 mg/ml [2]	IL-2 (pg/ml) from B3Z T-cells; B16F10 tumor cells, OVA 2.5 mg/ml [2]	IL-2 (pg/ml) from B3Z T-cells; KP LUN31 tumor cells, OVA 0.125 mg/ml [2]	IL-2 (pg/ml) from B3Z T-cells; KP LUN31 tumor cells, OVA 0.25 mg/ml [2]	IL-2 (pg/ml) from B3Z T-cells; KP LUN31 tumor cells, OVA 0.5 mg/ml [2]	IL-2 (pg/ml) from B3Z T-cells; KP LUN31 tumor cells, OVA 1.0 mg/ml [2]	IL-2 (pg/ml) from B3Z T-cells; KP LUN31 tumor cells, OVA 2.5 mg/ml [2]	IL-2 (pg/ml) from B3Z T-cells; LL2 tumor cells, OVA 2.5 mg/ml [2]	IL-2 (pg/ml) from B3Z T-cells; LL2 tumor cells, OVA 5.0 mg/ml [2]	IL-2 (pg/ml) from B3Z T-cells; LL2 tumor cells, OVA 10 mg/ml [2]	IL-2 (pg/ml) from B3Z T-cells; MC38 tumor cells, OVA 2.5 mg/ml [2]	IL-2 (pg/ml) from B3Z T-cells; MC38 tumor cells, OVA 5.0 mg/ml [2]	IL-2 (pg/ml) from B3Z T-cells; MC38 tumor cells, OVA 10 mg/ml [2]
H-2 Kb SIINFEKL-APC conjugated dextramer (Immudex) (from UniProt P01901 22-369) (peptide-MHC)	100%															
T-cell receptor (TCR) of the T-cell hybridoma B3Z86/90.14 (B3Z)		22 pg/mL	76 pg/mL	323 pg/mL	589 pg/mL	22 pg/mL	68 pg/mL	247 pg/mL	483 pg/mL	913 pg/mL	11 pg/mL	26 pg/mL	33 pg/mL	54 pg/mL	138 pg/mL	338 pg/mL
